In US20260097149A1 (RESEARCH FOUNDATION FOR THE STATE UNIVERSITY OF NEW YORK, published 2026):

Target: T1, integrin α4β1 (human, UniProt P13612 34-1032; P05556 21-798)
T1 construct: whole, on cells; Present on human PBMNC isolated from blood and on HUVEC; also called α4β1 integrin; CD49d (α4β1 integrin)
Assay: capture of PBMNC on immobilised H2R5 against blocking antibody and heparin-only control

T1 sequence (P13612 34-1032, chain 1 of 2): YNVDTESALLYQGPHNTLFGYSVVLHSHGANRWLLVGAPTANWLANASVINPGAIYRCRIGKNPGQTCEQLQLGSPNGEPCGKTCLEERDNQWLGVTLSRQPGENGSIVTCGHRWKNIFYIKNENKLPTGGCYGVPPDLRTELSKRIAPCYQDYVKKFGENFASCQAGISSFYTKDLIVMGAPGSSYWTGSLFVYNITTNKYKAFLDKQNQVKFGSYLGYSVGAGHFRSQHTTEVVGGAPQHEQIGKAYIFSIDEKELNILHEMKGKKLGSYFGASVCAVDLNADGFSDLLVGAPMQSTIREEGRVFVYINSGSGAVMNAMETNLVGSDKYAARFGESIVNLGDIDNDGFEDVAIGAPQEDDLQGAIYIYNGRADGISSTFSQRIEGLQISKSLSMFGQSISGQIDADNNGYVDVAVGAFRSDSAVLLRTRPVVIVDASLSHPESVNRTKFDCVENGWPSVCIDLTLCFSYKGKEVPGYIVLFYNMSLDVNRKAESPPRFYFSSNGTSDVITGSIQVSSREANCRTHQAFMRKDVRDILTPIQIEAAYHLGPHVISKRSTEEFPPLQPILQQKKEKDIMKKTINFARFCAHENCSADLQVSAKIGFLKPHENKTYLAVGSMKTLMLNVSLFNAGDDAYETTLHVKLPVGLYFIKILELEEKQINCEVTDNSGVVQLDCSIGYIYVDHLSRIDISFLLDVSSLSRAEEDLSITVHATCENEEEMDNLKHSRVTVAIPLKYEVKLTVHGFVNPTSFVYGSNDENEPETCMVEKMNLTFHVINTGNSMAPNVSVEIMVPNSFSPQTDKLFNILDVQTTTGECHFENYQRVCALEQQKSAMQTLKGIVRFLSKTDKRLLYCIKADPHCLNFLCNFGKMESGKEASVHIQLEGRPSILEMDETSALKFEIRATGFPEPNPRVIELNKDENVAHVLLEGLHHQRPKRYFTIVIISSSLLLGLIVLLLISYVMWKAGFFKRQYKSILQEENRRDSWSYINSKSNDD
T1 sequence (P05556 21-798, chain 2 of 2): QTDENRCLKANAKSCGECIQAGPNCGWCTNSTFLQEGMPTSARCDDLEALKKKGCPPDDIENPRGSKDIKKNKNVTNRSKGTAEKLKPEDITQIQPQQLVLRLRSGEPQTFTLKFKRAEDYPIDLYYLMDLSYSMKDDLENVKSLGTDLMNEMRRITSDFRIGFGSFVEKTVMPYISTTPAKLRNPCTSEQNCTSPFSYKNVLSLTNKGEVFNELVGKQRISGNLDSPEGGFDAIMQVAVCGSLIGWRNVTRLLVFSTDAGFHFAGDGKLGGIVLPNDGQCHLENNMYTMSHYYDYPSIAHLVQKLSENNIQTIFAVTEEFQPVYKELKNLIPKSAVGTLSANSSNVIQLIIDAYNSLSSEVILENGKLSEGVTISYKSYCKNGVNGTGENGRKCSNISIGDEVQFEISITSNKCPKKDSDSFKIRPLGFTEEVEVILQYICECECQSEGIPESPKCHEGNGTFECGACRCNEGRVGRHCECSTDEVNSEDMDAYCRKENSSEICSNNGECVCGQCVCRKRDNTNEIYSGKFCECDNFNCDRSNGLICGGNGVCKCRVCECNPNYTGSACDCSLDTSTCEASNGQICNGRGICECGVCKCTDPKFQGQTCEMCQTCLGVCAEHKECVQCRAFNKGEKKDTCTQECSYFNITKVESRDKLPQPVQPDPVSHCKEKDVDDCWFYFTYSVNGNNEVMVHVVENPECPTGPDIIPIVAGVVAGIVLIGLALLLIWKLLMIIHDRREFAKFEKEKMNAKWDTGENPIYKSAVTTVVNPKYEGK

B1: H2R5 fusion protein, H2-(GGGS-…)5 (designed binder)
chain: MGSSHHHHHHSSGLVPRGSHMASMTGGQQMGRGSAIPAPTDLKFTQGTPTSLSAQWTPPNVQLTGYRVRVTPKEKTGPMKEINLAPDSSSVVVSGLMVATKYEVSVYALKDTLTSRPAQGVVTTLENVSPPRRARVTDATETTITISWRTKTETITGFQVDAVPANGQTPIQRTIKPDVRSYTITGLQPGTDYKIYLYTLNDNARSSPVVIDASTAIDAPSNLRFLATTPNSLLVSWQPPRARITGYIIKYEKPGSPPREVVPRPRPGVTEATITGLEPGTEYTIYVIALKNNQKSEPLIGHKLGGGGSHIPREDVDYHGGGGSHIPREDVDYHGGGGSHIPREDVDYHGGGGSHIPREDVDYHGGGGSHIPREDVDYHLEHHHHHH
notes: no residue limits are stated; also called fusion peptide (H2R5); His tagged fusion protein
binding result: binds
